Measurements taken from patent US20110318339A1 (FABRUS, published 2011).
Each block holds one binder with its values, some of them ahead of it.

Tests used:
[1] = target: T1, full-length human DLL4 expressed on the surface of CHO cells (human, UniProt Q9NR61 26-685); test: flow cytometry, 250 nM biotinylated Notch-Fc on CHO-DLL4 cells, no Fab (0 nM control)
T1 construct: also called CHO-DLL4; DLL4-expressing CHO cells
Procedure: (§1) Streptavidin-PE was used as a detection molecule.
(§2) Fab was 5-fold serially diluted in 2% BSA/PBS from a starting concentration of 50 nM. […] PE-labeled streptavidin (Cat# 21627, Pierce-Thermo Scientific) was then added to a final dilution of 1:5 followed by incubation for 10 minutes at room temperature. The cells were then washed twice in 2% BSA/PBS and analyzed by flow cytometry on a BD FACSAria.

[2] = target: full-length human DLL4 expressed on the surface of CHO cells (human, UniProt Q9NR61 27-685); test: cell-based or functional assay
[3] = target: T2, recombinant human DLL4 (Cat# 1506-D4/CF, R&D Systems) (human, UniProt Q9NR61 27-529); test: ELISA, DLL4 coated, Fab 20 nM
T2 construct: Bought protein; also called hDLL4; rHuman DLL4
Procedure, shortened: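 Binding of Fab to the coated plate is measured by absorbance at 450 nm. Triplicate serial dilutions incubate 1 h at room temperature after 1% BSA/TBST blocking, and HRP-labelled anti-human kappa or lambda antibody (1:1000, 30 min) with 2-min TMB development reports bound Fab.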

[4] = target: T2, recombinant human DLL4 (Cat# …); test: ELISA, DLL4 coated, Fab 0.74 nM
Procedure: (§3) The plate was blocked by adding 1% BSA in Tris-buffered Saline Tween (TBST) and incubating for 1 hour at room temperature followed by washing 2 times with 150 μl TBST. A Fab antibody was serially diluted in 1% BSA in PBS. A 50 μl aliquot of each serial dilution was added, in triplicate, to each well and the plate was incubated for 1 hour at room temperature followed by washing 2 times with TBST. 50 μl of either goat anti-human kappa HRP conjugated secondary antibody (Cat # A7164-1 mL, Sigma-Aldrich) or goat anti-human lambda HRP conjugated secondary antibody (Cat # L1645-1 ml, Sigma-Aldrich), diluted 1:1000 in 1% BSA in PBS, was added to each well and the plate was incubated for 30 minutes at room temperature followed by washing 3 times with 200 μl TBST. Finally, 50 μl TMB one-component reagent (Cat # TMBW-1000-01, BioFax) was added and allowed to develop for 2 minutes at room temperature. The reaction was immediately halted by the addition of 50 μl 0.5M H₂SO₄ and the absorbance at 450 nm was measured using an ELISA plate reader.

[5] = target: T2, recombinant human DLL4 (Cat# …); test: ELISA, DLL4 coated, Fab 2.22 nM
Procedure: as §3

[6] = target: T2, recombinant human DLL4 (Cat# …); test: ELISA, DLL4 coated, Fab 6.67 nM
Procedure: as §3

[7] = target: T2, recombinant human DLL4 (Cat# …); test: SPR (ProteOn), hDLL4 amine-coupled on chip
Procedure, shortened: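 SPR on a ProteOn GLM chip, with DLL4 amine-coupled at three surface densities. Fab analytes were run as 3-fold serial dilutions from 1 μM in 10 mM HEPES pH 7.4, 150 mM NaCl, 0.01% Tween-20, 0.1 mg/ml BSA at 25° C. Responses from each surface were globally fit for binding constants.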

[8] = target: T3, recombinant mouse DLL4 (Cat# 1389-D4-050/CF, R&D Systems) (mouse, UniProt Q9JI71 28-525); test: SPR, mDLL4 on chip, row 'Surface 1' (first)
T3 construct: Bought protein; also called mDLL4

[9] = target: T3, recombinant mouse DLL4 (Cat# …); test: SPR, mDLL4 on chip, row 'Surface 1' (third)
[10] = target: T3, recombinant mouse DLL4 (Cat# …); test: SPR, mDLL4 on chip, row 'Surface 1' (second)
[11] = target: T3, recombinant mouse DLL4 (Cat# …); test: SPR, mDLL4 on chip, average of three surfaces
[12] = target: T4, Recombinant Human DLL4 (Cat# 1506-D4/CF, R&D Systems) (human, UniProt Q9NR61 27-529); test: ELISA, DLL4 coated
T4 construct: Bought protein; also called rHuman DLL4; hDLL4

[13] = target: T4, Recombinant Human DLL4 (Cat# …); test: ELISA, hDLL4 coated, estimated from dose-dependent binding
[14] = target: T5, recombinant human DLL4 (Cat# 1506-D4/CF, R&D Systems) (human, UniProt Q9NR61 27-529); test: ELISA, hDLL4 coated 0.5 ng/ul, Fab 0.78 nM
T5 construct: Bought protein; also called hDLL4; h DLL4
Procedure: as §3

[15] = target: T5, recombinant human DLL4 (Cat# …); test: ELISA, hDLL4 coated 0.5 ng/ul, Fab 1.56 nM
Procedure: as §3

[16] = target: T5, recombinant human DLL4 (Cat# …); test: ELISA, hDLL4 coated 0.5 ng/ul, Fab 3.13 nM
Procedure: as §3

[17] = target: T5, recombinant human DLL4 (Cat# …); test: ELISA, hDLL4 coated 0.5 ng/ul, Fab 6.25 nM
Procedure: as §3

[18] = target: T5, recombinant human DLL4 (Cat# …); test: ELISA, hDLL4 coated 0.5 ng/ul, Fab 12.50 nM
Procedure: as §3

[19] = target: T5, recombinant human DLL4 (Cat# …); test: ELISA, hDLL4 coated 0.5 ng/ul, Fab 25.00 nM
Procedure: as §3

[20] = target: T5, recombinant human DLL4 (Cat# …); test: ELISA, hDLL4 coated 0.5 ng/ul, Fab 50.00 nM
Procedure: as §3

[21] = target: T5, recombinant human DLL4 (Cat# …); test: ELISA, hDLL4 coated 0.5 ng/ul, Fab 100.00 nM
Procedure: as §3

[22] = target: T1, full-length human DLL4 expressed on the …; test: flow cytometry competition, 250 nM biotinylated Notch-Fc as competitor, Fab 2 nM
Procedure: as §1, §2

[23] = target: T1, full-length human DLL4 expressed on the …; test: flow cytometry competition, 250 nM biotinylated Notch-Fc as competitor, Fab 10 nM
Procedure: as §1, §2

[24] = target: T1, full-length human DLL4 expressed on the …; test: flow cytometry competition, 250 nM biotinylated Notch-Fc as competitor, Fab 50 nM
Procedure: as §1, §2

T3 sequence (Q9JI71 28-525 limits assumed): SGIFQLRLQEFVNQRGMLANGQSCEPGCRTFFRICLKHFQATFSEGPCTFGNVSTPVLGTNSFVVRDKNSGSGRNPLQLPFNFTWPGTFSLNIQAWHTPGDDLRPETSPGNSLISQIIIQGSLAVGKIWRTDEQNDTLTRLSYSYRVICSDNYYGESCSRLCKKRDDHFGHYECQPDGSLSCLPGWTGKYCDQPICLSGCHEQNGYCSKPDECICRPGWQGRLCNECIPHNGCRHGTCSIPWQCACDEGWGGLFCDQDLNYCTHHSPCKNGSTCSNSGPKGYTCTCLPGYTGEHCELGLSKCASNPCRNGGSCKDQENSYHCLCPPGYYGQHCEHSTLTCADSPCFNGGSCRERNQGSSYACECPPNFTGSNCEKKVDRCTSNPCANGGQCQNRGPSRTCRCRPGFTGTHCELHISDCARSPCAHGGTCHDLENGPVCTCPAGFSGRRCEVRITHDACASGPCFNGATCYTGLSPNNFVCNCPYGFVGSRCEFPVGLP

B3: Fab VH1-46_IGHD6-6*01_IGHJ1*01 S102A/S103P/S104F/H111F I51V/N52L/S54T/G56H & L6_IGKJ1*01 S28N/S30D/S31H S52L/A55S (Fab, V domains shown)
VH: QVQLVQSGAEVKKPGASVKVSCKASGYTFTSYYMHWVRQAPGQGLEWMGIVLPTGHSTSYAQKFQGRVTMTRDTSTSTVYMELSSLRSEDTAVYYCAREEYAPFSAEYFQFWGQGTLVTVSS
VL: EIVLTQSPATLSLSPGERATLSCRASQNVDHYLAWYQQKPGQAPRLLIYDALNRSTGIPARFSGSGSGTDFTLTISSLEPEDFAVYYCQQRSNWPPWTFGQGTKVEIKR
notes: Fab made in E. coli: VH on CH1 with His6 and Flag tags (Plasmid A), VL on kappa CL (Plasmid C); also called H: APFF VLTH & L: NDH LS
ELISA absorbance at 450 nm [3]: 0.91 A450
ELISA absorbance at 450 nm [4]: 0.263 A450
ELISA absorbance at 450 nm [5]: 0.523 A450
ELISA absorbance at 450 nm [6]: 0.747 A450
Kd [7]: 1.7 nM
koff [7]: 0.00109 s⁻¹
kon [7]: 684000 M⁻¹ s⁻¹
Kd [8]: 7.3 nM
koff [8]: 0.0021 s⁻¹
kon [8]: 287000 M⁻¹ s⁻¹
Kd [9]: 10.9 nM
koff [9]: 0.00188 s⁻¹
kon [9]: 173000 M⁻¹ s⁻¹
Kd [10]: 10.8 nM
koff [10]: 0.00178 s⁻¹
kon [10]: 165000 M⁻¹ s⁻¹
Kd [11]: 9.7 nM
koff [11]: 0.00192 s⁻¹
kon [11]: 208000 M⁻¹ s⁻¹

B4: Fab H:APFF VLTH & L:NDH (Fab, V domains shown)
VH: QVQLVQSGAEVKKPGASVKVSCKASGYTFTSYYMHWVRQAPGQGLEWMGIVLPTGHSTSYAQKFQGRVTMTRDTSTSTVYMELSSLRSEDTAVYYCAREEYAPFSAEYFQFWGQGTLVTVSS
VL: EIVLTQSPATLSLSPGERATLSCRASQNVDHYLAWYQQKPGQAPRLLIYDASNRATGIPARFSGSGSGTDFTLTISSLEPEDFAVYYCQQRSNWPPWTFGQGTKVEIKR
notes: Fab, kappa light chain
fold increased binding affinity against the antibody mutants with heavy chain H:APFF ALTH [12]: ~10 fold
Kd [13]: ~1 nM

B5: Fab VH5-51_IGHD5-18*01>3_IGHJ4*01 G100K/G104T G24T/S28R/G35V (H:KT TRV) & V3-4_IGLJ1*01 (Fab, V domains shown)
VH: EVQLVQSGAEVKKPGESLKISCKTSGYRFTSYWIVWVRQMPGKGLEWMGIIYPGDSDTRYSPSFQGQVTISADKSISTAYLQWSSLKASDTAMYYCARRKYSYTYDYFDYWGQGTLVTVSS
VL: QTVVTQEPSFSVSPGGTVTLTCGLSSGSVSTSYYPSWYQQTPGQAPRTLIYSTNTRSSGVPDRFSGSILGNKAALTITGAQADDESDYYCVLYMGSGISYVFGTGTKVTVL
notes: Tested as Fab from E. coli (Plasmid A: CH1, His6, Flag; Plasmid E: CL lambda); also called H:KT TRV & L:wt
ELISA absorbance at 450 nm [14]: 0.143 A450
ELISA absorbance at 450 nm [15]: 0.183 A450
ELISA absorbance at 450 nm [16]: 0.187 A450
ELISA absorbance at 450 nm [17]: 0.31 A450
ELISA absorbance at 450 nm [18]: 0.389 A450
ELISA absorbance at 450 nm [19]: 0.6 A450
ELISA absorbance at 450 nm [20]: 0.976 A450
ELISA absorbance at 450 nm [21]: 1.45 A450
signal of Notch-Fc bound to CHO-DLL4 (streptavidin-PE) [22]: 448
signal of Notch-Fc bound to CHO-DLL4 (streptavidin-PE) [23]: 244
signal of Notch-Fc bound to CHO-DLL4 (streptavidin-PE) [24]: 141

Results, then the binder that gave them:

signal of Notch-Fc bound to CHO-DLL4 (streptavidin-PE) [1]: 531
B1: biotinylated Notch-Fc (rHuman Notch-1/Fc Chimera, cat# 3647-TK-050, R&D Systems) (Fc fusion)
chain: ARGPRCSQPGETCLNGGKCEAANGTEACVCGGAFVGPRCQDPNPCLSTPCKNAGTCHVVDRRGVADYACSCALGFSGPLCLTPLDNACLTNPCRNGGTCDLLTLTEYKCRCPPGWSGKSCQQADPCASNPCANGGQCLPFEASYICHCPPSFHGPTCRQDVNECGQKPGLCRHGGTCHNEVGSYRCVCRATHTGPNCERPYVPCSPSPCQNGGTCRPTGDVTHECACLPGFTGQNCEENIDDCPGNNCKNGGACVDGVNTYNCRCPPEWTGQYCTEDVDECQLMPNACQNGGTCHNTHGGYNCVCVNGWTGEDCSENIDDCASAACFHGATCHDRVASFYCECPHGRTGLLCHLNDACISNPCNEGSNCDTNPVNGKAICTCPSGYTGPACSQDVDECSLGANPCEHAGKCINTLGSFECQCLQGYTGPRCEIDVNECVSNPCQNDATCLDQIGEFQCICMPGYEGVHCEVNTDECASSPCLHNGRCLDKINEFQCECPTGFTGHLCQ
modifications: biotinylated with EZ-Link NHS-Biotin Reagent (sites not given)
notes: Bought Notch-1/Fc chimera; Fc part of the bought chimera not given

IC50, Notch-activation (luciferase reporter), T98G cells with CHO-DLL4 [2]: ~6 nM
fold efficiency against Fab H:APFF VLTH & L:NDH LS, Notch-activation (luciferase reporter) [2]: 30 fold
B2: IgG H:APFF VLTH & L:NDH LS (antibody, V domains shown)
VH: QVQLVQSGAEVKKPGASVKVSCKASGYTFTSYYMHWVRQAPGQGLEWMGIGLPTGHSTSYAQKFQGRVTMTRDTSTSTVYMELSSLRSEDTAVYYCAREEYAPFSAEYFQFWGQGTLVTVSS
VL: EIVLTQSPATLSLSPGERATLSCRASQNVDHYLAWYQQKPGQAPRLLIYDALNRSTGIPARFSGSGSGTDFTLTISSLEPEDFAVYYCQQRSNWPPWTFGQGTKVEIKR

Kd [13]: ~50 nM
B6: Fab VH5-51_IGHD5-18*01>3_IGHJ4*01 H:KT TRV & V3-4_IGLJ1*01 (Fab, V domains shown)
VH: EVQLVQSGAEVKKPGESLKISCKTSGYRFTSYWIVWVRQMPGKGLEWMGIIYPGDSDTRYSPSFQGQVTISADKSISTAYLQWSSLKASDTAMYYCARRKYSYTYDYFDYWGQGTLVTVSS
VL: QTVVTQEPSFSVSPGGTVTLTCGLSSGSVSTSYYPSWYQQTPGQAPRTLIYSTNTRSSGVPDRFSGSILGNKAALTITGAQADDESDYYCVLYMGSGISYVFGTGTKVTVL
notes: Fab, lambda light chain; also called H:KT TRV & L:wt; G100K/G104T G24T/S28R/G35V
